{"source": "paper PMC6318002", "about": "(Nature, 2018)", "biological_target": "the molecule itself", "experiment": "cross-linking"}
{"protein": "recombinant PKM2-C423/424A (enzyme) not shown", "values": [{"measurement": "stoichiometry N", "result": 4}]}
